Source: US20220289848A1

Tests used:
CD47 = CD47 (UniProt Q08722); assay: FACS binding, CHO-K1 cells expressing CD47; flat curve
PD-L1 = PD-L1 (UniProt Q9NZQ7); assay: FACS binding, CHO-K1 cells expressing PD-L1; flat curve
[1] = molecular target: human PD-L1 on PD-L1 aAPC/CHO-K1 Cells (human) (UniProt Q9NZQ7); assay: cell-based or functional assay
Sequence of human PD-L1 on PD-L1 aAPC/CHO-K1 Cells (human) (Q9NZQ7 19-290): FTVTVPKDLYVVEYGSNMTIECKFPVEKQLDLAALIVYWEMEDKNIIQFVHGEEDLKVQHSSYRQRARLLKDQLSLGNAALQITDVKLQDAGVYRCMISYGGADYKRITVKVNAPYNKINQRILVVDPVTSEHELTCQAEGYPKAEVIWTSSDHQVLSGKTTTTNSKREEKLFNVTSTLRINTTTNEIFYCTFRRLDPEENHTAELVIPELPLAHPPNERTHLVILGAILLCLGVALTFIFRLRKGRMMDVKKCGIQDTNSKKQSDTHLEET

Sequence of PD-L1 (Q9NZQ7 19-290): as above

Substance	EC50 (CD47) [nM]	EC50 (PD-L1) [nM]	PD-1/PD-L1 blockade bioassay, relative activity (reference) [1] [%]
Human IgG	0.00446	38.3	–
Tecentriq biosimilar (antibody)	–	–	100
